Measured values taken from patent publication US20200405868A1, “GEL-FORMING POLYPEPTIDES” (priority 2018, published 2020).
One block for each substance: values may come before it. Where no end group is shown, it is not given here. The star is where a group is joined. Palmitoyl = CCCCCCCCCCCCCCCC(=O)*

Assay: Compound gel-forming ability in water (visual inspection, tube tapping assay, tilted tube assay);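 further: peptides mixed with de-ionized water at about 22-25 °C, judged after 20 min by eye plus tube tapping (10 taps, moves counted) and 90° tilt mobility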
Type: physicochemical
Conditions: for gel formation at 6% w/w: 6% w/w in water; for gel formation at 11% w/w: 11% w/w in water; for gel formation in aqueous solution, 6% / propensity to form gels, chimeric or mutated polypeptides, 6%: 6% w/w; for gel formation at 30% w/w: 30% w/w in water; for gel formation in aqueous solution, 30%: 30% w/w; for gel formation at 20% w/w: 20% w/w in water; for gel formation in aqueous solution, 20% / propensity to form gels, chimeric or mutated polypeptides, 20%: 20% w/w; for Physical property at 11% w/w: 11% w/w in aqueous solution, room temperature

Substance: Pal-SSPHSY-miniPEG-(D-Ala)-(D-(β-naphthyl))-AAW-(D-Phe)-Lys-NH2 [SEQ ID NO:235]
gel formation at 3% w/w (3% w/w in water): semisolid gel | gel formation at 6% w/w: semisolid gel | gel formation at 11% w/w: semisolid gel | gel formation in aqueous solution, 3% (Table 3, 3% w/w): SS (SS for semisolid gel) | gel formation in aqueous solution, 6% (Table 3): SS (SS for semisolid gel) | gel formation in aqueous solution, 11% (Table 3, 11% w/w): SS (SS for semisolid gel) | propensity to form gels, chimeric or mutated polypeptides, 3% (Table 5, 3% w/w): SS (An ability to form semisolid gel is represented by an SS) | propensity to form gels, chimeric or mutated polypeptides, 6% (Table 5): SS (An ability to form semisolid gel is represented by an SS) | propensity to form gels, chimeric or mutated polypeptides, 11% (Table 5, 11% w/w): SS (An ability to form semisolid gel is represented by an SS)

gel formation at 30% w/w: semisolid gel | gel formation in aqueous solution, 30% (Table 3): SS (SS for semisolid gel)
Substance: Pal-SSPHSY-miniPEG-(D-Arg)-Arg-Pro-Hyp-Gly-Thi-Ser-(D-Tic)-Oic-Arg [SEQ ID NO:233]
gel formation in aqueous solution, 11% (Table 3, 11% w/w): AS/IS (AS/IS for aqueous solution or insoluble)

Substance: Pal-SSPHSY-miniPEG-EAYKAAEKAYAAKEAAKEAAKAKAEKKAAYAKAKAAKYEKKAKKAAAEYKKK ({Palmitoyl-Ser-Ser-Pro-H2N-Ser-Tyr-miniPEG}-EAYKAAEKAYAAKEAAKEAAKAKAEKKAAYAKAKAAKYEKKAKKAAAEYKKK) [SEQ ID NO:245]
gel formation at 20% w/w: semisolid gel | gel formation in aqueous solution, 11% (Table 3, 11% w/w): AS/IS (AS/IS for aqueous solution or insoluble) | gel formation in aqueous solution, 20% (Table 3): SS (SS for semisolid gel) | propensity to form gels, chimeric or mutated polypeptides, 11% (Table 5, 11% w/w): AS/IS | propensity to form gels, chimeric or mutated polypeptides, 20% (Table 5): SS (An ability to form semisolid gel is represented by an SS)

Substance: Pal-SSPHSY-miniPEG-FLPLIGRVLSGIL-NH2 ({Palmitoyl-Ser-Ser-Pro-H2N-Ser-Tyr-miniPEG}-FLPLIGRVLSGIL-NH2) [SEQ ID NO:243]
gel formation at 11% w/w: semisolid gel | gel formation in aqueous solution, 6% (Table 3): AS/IS (AS/IS for aqueous solution or insoluble) | gel formation in aqueous solution, 11% (Table 3, 11% w/w): SS (SS for semisolid gel)

Substance: Pal-SSPHSY-miniPEG-HGDGSFSDEMNTILDNLAARDFINWLIQTKITD-OH [SEQ ID NO:222]
gel formation at 6% w/w: liquid gel | gel formation at 11% w/w: semisolid gel | gel formation in aqueous solution, 11% (Table 3, 11% w/w): SS (SS for semisolid gel) | propensity to form gels, chimeric or mutated polypeptides, 11% (Table 5, 11% w/w): SS (An ability to form semisolid gel is represented by an SS)

Substance: Pal-SSPHSY-miniPEG-ICVVQDWGHHRCT-NH2 [SEQ ID NO:244]
gel formation at 11% w/w: semisolid gel | gel formation in aqueous solution, 6% (Table 3): AS/IS (AS/IS for aqueous solution or insoluble) | gel formation in aqueous solution, 11% (Table 3, 11% w/w): SS (SS for semisolid gel) | propensity to form gels, chimeric or mutated polypeptides, 6% (Table 5): AS/IS | propensity to form gels, chimeric or mutated polypeptides, 11% (Table 5, 11% w/w): SS (An ability to form semisolid gel is represented by an SS)

Substance: Pal-SSPHSY-miniPEG-KCNTATCATQRLANFLVHSSNNFGPILPPTNVGSNTY-NH2 ({Palmitoyl-Ser-Ser-Pro-H2N-Ser-Tyr-miniPEG}-KCNTATCATQRLANFLVHSSNNFGPILPPTNVGSNTY-NH2; ends and bridges not checked) [SEQ ID NO:218]
gel formation at 6% w/w: semisolid gel | gel formation at 11% w/w: semisolid gel | gel formation in aqueous solution, 6% (Table 3): SS (SS for semisolid gel) | gel formation in aqueous solution, 11% (Table 3, 11% w/w): SS (SS for semisolid gel) | propensity to form gels, chimeric or mutated polypeptides, 6% (Table 5): SS (An ability to form semisolid gel is represented by an SS) | propensity to form gels, chimeric or mutated polypeptides, 11% (Table 5, 11% w/w): SS (An ability to form semisolid gel is represented by an SS)

gel formation at 6% w/w: liquid gel | gel formation at 11% w/w: semisolid gel | gel formation in aqueous solution, 11% (Table 3, 11% w/w): SS (SS for semisolid gel)
Substance: Pal-SSPHSY-miniPEG-PFRSVQ-NH2 [SEQ ID NO:242]
propensity to form gels, chimeric or mutated polypeptides, 11% (Table 5, 11% w/w): SS (An ability to form semisolid gel is represented by an SS)

gel formation at 30% w/w: form gel | gel formation in aqueous solution, 30% (Table 3): SS (SS for semisolid gel)
Substance: Pal-SSPHSY-miniPEG-RC-(D-Ala)-H-(D-Phe)-RWC-NH2. [SEQ ID NO:227]
gel formation in aqueous solution, 11% (Table 3, 11% w/w): AS/IS (AS/IS for aqueous solution or insoluble)

gel formation at 11% w/w: semisolid gel | gel formation in aqueous solution, 11% (Table 3, 11% w/w): SS (SS for semisolid gel)
Substance: Pal-SSPHSY-miniPEG-RGD-NH2 [SEQ ID NO:247]
propensity to form gels, chimeric or mutated polypeptides, 11% (Table 5, 11% w/w): SS (An ability to form semisolid gel is represented by an SS)

Substance: Pal-SSPHSY-miniPEG-SDAAVDTSSEITTKDLKEKKEVVEEAEN-NH2 ({Palmitoyl-Ser-Ser-Pro-H2N-Ser-Tyr-miniPEG}-SDAAVDTSSEITTKDLKEKKEVVEEAEN-NH2) [SEQ ID NO:239]
gel formation at 11% w/w: does not form gel | gel formation in aqueous solution, 11% (Table 3, 11% w/w): AS/IS (AS/IS for aqueous solution or insoluble)

Substance: Pal-SSPHSY-miniPEG-SLRRSSCFGGRMDRIGAQSGLGCNSFRY-NH2 [SEQ ID NO:238]
gel formation at 11% w/w: semisolid gel | gel formation at 20% w/w: semisolid gel | gel formation in aqueous solution, 11% (Table 3, 11% w/w): SS (SS for semisolid gel) | gel formation in aqueous solution, 20% (Table 3): SS (SS for semisolid gel) | propensity to form gels, chimeric or mutated polypeptides, 11% (Table 5, 11% w/w): SS (An ability to form semisolid gel is represented by an SS) | propensity to form gels, chimeric or mutated polypeptides, 20% (Table 5): SS (An ability to form semisolid gel is represented by an SS)

Substance: Pal-SSPHSY-miniPEG-SYSMEHFRWGKPVGKKRRPVKVYP-OH [SEQ ID NO:225]
gel formation in aqueous solution, 11% (Table 3, 11% w/w): AS/IS (AS/IS for aqueous solution or insoluble) | gel formation in aqueous solution, 20% (Table 3): SS (SS for semisolid gel)

gel formation at 11% w/w: liquid gel | gel formation at 20% w/w: semisolid gel | gel formation in aqueous solution, 20% (Table 3): SS (SS for semisolid gel)
Substance: Pal-SSPHSY-miniPEG-VGVAPG-NH2 [SEQ ID NO:248]
propensity to form gels, chimeric or mutated polypeptides, 20% (Table 5): SS (An ability to form semisolid gel is represented by an SS)

Substance: Pal-SSPHSY-miniPEG-YADAIFTNSYRKVLGQLSARKLLQDIMSR-NH2 [SEQ ID NO:236]
gel formation in aqueous solution, 6% (Table 3): AS/IS (AS/IS for aqueous solution or insoluble) | gel formation in aqueous solution, 11% (Table 3, 11% w/w): AS/IS (AS/IS for aqueous solution or insoluble)

Substance: Pal-SSPHSY-miniPEG-YIGSR-NH2 [SEQ ID NO:246]
gel formation at 11% w/w: semisolid gel | gel formation in aqueous solution, 6% (Table 3): SS (SS for semisolid gel) | gel formation in aqueous solution, 11% (Table 3, 11% w/w): SS (SS for semisolid gel) | propensity to form gels, chimeric or mutated polypeptides, 6% (Table 5): SS (An ability to form semisolid gel is represented by an SS) | propensity to form gels, chimeric or mutated polypeptides, 11% (Table 5, 11% w/w): SS (An ability to form semisolid gel is represented by an SS)

Substance: Pal-SSPHSY-miniPEG-YRSRKYSSVVY-NH2 ({Palmitoyl-Ser-Ser-Pro-H2N-Ser-Tyr-miniPEG}-YRSRKYSSVVY-NH2) [SEQ ID NO:249]
gel formation at 11% w/w: semisolid gel | gel formation in aqueous solution, 6% (Table 3): AS/IS (AS/IS for aqueous solution or insoluble) | gel formation in aqueous solution, 11% (Table 3, 11% w/w): SS (SS for semisolid gel) | propensity to form gels, chimeric or mutated polypeptides, 6% (Table 5): AS/IS | propensity to form gels, chimeric or mutated polypeptides, 11% (Table 5, 11% w/w): SS (An ability to form semisolid gel is represented by an SS)

Substance: Pal-VGSKAF-NH2 (Palmitoyl-VGSKAF-NH2; SMILES CCCCCCCCCCCCCCCC(=O)N[C@H](C(=O)NCC(=O)N[C@@H](CO)C(=O)N[C@@H](CCCCN)C(=O)N[C@@H](C)C(=O)N[C@@H](Cc1ccccc1)C(N)=O)C(C)C; UniProt P06881 114-119, looked up, fragment) [SEQ ID NO:132]
Physical property at 11% w/w (Table 2): AS/IS (AS/IS for aqueous solution or insoluble)

Substance: Pal-VGSNTY-NH2 [SEQ ID NO:133]
Physical property at 11% w/w (Table 2): AS/IS (AS/IS for aqueous solution or insoluble)

Substance: Pal-VQKLAHQIYQFTDKDVAPRSKISPQGY-NH2 (Palmitoyl-VQKLAHQIYQFTDKDVAPRSKISPQGY-NH2; SMILES CCCCCCCCCCCCCCCC(=O)N[C@H](C(=O)N[C@@H](CCC(N)=O)C(=O)N[C@@H](CCCCN)C(=O)N[C@@H](CC(C)C)C(=O)N[C@@H](C)C(=O)N[C@@H](Cc1c[nH]cn1)C(=O)N[C@@H](CCC(N)=O)C(=O)N[C@H](C(=O)N[C@@H](Cc1ccc(O)cc1)C(=O)N[C@@H](CCC(N)=O)C(=O)N[C@@H](Cc1ccccc1)C(=O)N[C@H](C(=O)N[C@@H](CC(=O)O)C(=O)N[C@@H](CCCCN)C(=O)N[C@@H](CC(=O)O)C(=O)N[C@H](C(=O)N[C@@H](C)C(=O)N1CCC[C@H]1C(=O)N[C@@H](CCCNC(=N)N)C(=O)N[C@@H](CO)C(=O)N[C@@H](CCCCN)C(=O)N[C@H](C(=O)N[C@@H](CO)C(=O)N1CCC[C@H]1C(=O)N[C@@H](CCC(N)=O)C(=O)NCC(=O)N[C@@H](Cc1ccc(O)cc1)C(N)=O)[C@@H](C)CC)C(C)C)[C@@H](C)O)[C@@H](C)CC)C(C)C) [SEQ ID NO:102]
Physical property at 11% w/w (Table 2): AS/IS (AS/IS for aqueous solution or insoluble)

Substance: Pal-VQKLPHSY-NH2 (Palmitoyl-VQKLPHSY-NH2; SMILES CCCCCCCCCCCCCCCC(=O)N[C@H](C(=O)N[C@@H](CCC(N)=O)C(=O)N[C@@H](CCCCN)C(=O)N[C@@H](CC(C)C)C(=O)N1CCC[C@H]1C(=O)N[C@@H](Cc1c[nH]cn1)C(=O)N[C@@H](CO)C(=O)N[C@@H](Cc1ccc(O)cc1)C(N)=O)C(C)C) [SEQ ID NO:117]
Physical property at 11% w/w (Table 2): SS (SS for semisolid gel)

Substance: Pal-VQKLVDPSSPHSY-NH2 (Palmitoyl-VQKLVDPSSPHSY-NH2; SMILES CCCCCCCCCCCCCCCC(=O)N[C@H](C(=O)N[C@@H](CCC(N)=O)C(=O)N[C@@H](CCCCN)C(=O)N[C@@H](CC(C)C)C(=O)N[C@H](C(=O)N[C@@H](CC(=O)O)C(=O)N1CCC[C@H]1C(=O)N[C@@H](CO)C(=O)N[C@@H](CO)C(=O)N1CCC[C@H]1C(=O)N[C@@H](Cc1c[nH]cn1)C(=O)N[C@@H](CO)C(=O)N[C@@H](Cc1ccc(O)cc1)C(N)=O)C(C)C)C(C)C) [SEQ ID NO:112]
Physical property at 11% w/w (Table 2): SS (SS for semisolid gel)

Substance: QQRFEWEFEQQ-miniPEG-RPKPQQFFGLM-NH2 [SEQ ID NO:285]
gel formation in aqueous solution, 6% (Table 3): AS/IS (AS/IS for aqueous solution or insoluble) | gel formation in aqueous solution, 11% (Table 3, 11% w/w): AS/IS (AS/IS for aqueous solution or insoluble)

Physical property at 11% w/w (Table 1): AS/IS | propensity to form gels, wild-type counterparts, 11% (Table 5, 11% w/w): AS/IS
Substance: RGD-NH2 [SEQ ID NO:44, reference compound]
gel formation in aqueous solution, 11% (Table 3, 11% w/w): AS/IS (AS/IS for aqueous solution or insoluble)
